The values below come from paper PMC10150958, “Combination of anti-C1qA08 and anti-mCRP a.a.35-47 antibodies is associated with renal prognosis of patients with lupus nephritis” (Frontiers in Immunology, 2023).

One may read the Kd as the equilibrium constant for the complex coming apart. A high value points to weaker binding.

The labels stand for the following.
B1: monomeric CRP (mCRP) (natural protein, UniProt P02741 19-224, looked up)
chain: QTDMSRKAFVFPKESDTSYVSLKAPLTKPLKAFTVCLHFYTELSSTRGYSIFSYATKRQDNEILIFWSKDIGYSFTVGGSEILFEVPEVTVAPVHICTSWESASGIVEFWVDGKPRVRKSLKKGYTVGAEASIILGQEQDSFGGNFEGSQSLVGDIGNVNMWDFVLSPDEINTIYLGGPFSPNVLNWRALKYEVQGEVFTKPQLWP
notes: C-reactive protein, monomeric (dissociated, denatured) form; Same protein in all assays: purified mCRP in solution or coated on plates; for SPR with the C1q peptides pentameric CRP was coupled to the chip and turned into mCRP by urea/EDTA, because mCRP precipitated in acetate buffer; also called monomeric C-reactive protein; urea-denatured mCRP; source: urea-denatured mCRP on the microplate; on …

For test [1], the target named is T1, human complement component C1q (human, UniProt P02745 23-245; P02746 28-253; P02747 29-245).
T1 construct: complement C1q, A chain, human; complement C1q, B chain, human; complement C1q, C chain, human; also called human C1q; copies: 6 + 6 + 6
T1 sequence (P02745 23-245, chain 1 of 3): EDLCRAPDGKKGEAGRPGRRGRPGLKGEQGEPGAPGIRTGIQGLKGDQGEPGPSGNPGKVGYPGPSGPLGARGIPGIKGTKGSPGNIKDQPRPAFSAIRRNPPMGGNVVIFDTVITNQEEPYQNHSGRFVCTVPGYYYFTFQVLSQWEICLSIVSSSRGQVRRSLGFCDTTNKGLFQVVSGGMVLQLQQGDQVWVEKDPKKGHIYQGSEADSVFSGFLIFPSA
T1 sequence (P02746 28-253, chain 2 of 3): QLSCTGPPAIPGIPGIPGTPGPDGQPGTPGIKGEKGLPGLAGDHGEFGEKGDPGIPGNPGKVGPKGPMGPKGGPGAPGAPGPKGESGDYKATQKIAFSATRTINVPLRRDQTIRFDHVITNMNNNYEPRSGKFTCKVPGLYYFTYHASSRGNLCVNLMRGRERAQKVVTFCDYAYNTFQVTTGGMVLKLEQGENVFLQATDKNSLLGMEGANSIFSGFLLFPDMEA
T1 sequence (P02747 29-245, chain 3 of 3): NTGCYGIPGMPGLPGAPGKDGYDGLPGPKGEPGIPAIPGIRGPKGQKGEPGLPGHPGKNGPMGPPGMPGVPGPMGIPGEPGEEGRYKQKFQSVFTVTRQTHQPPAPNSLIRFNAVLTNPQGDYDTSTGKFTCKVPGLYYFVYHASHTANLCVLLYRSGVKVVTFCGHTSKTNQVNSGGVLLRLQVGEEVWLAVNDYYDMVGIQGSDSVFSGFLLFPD
The test is described as follows: SPR; Biacore T200; C1q coupled to a CM5 chip; mCRP or peptides a.a.35-47, a.a.199-206 injected at 30 μl/min in PBS with 0.05% P-20; steady-state curve for a.a.35-47. The following applies: both partners purified. On the technique in general: SPR reads the build-up and loss of mass on a sensor chip optically.

The test “monomeric CRP (mCRP)” addresses B1. The test is described as follows: SPR; Biacore T200; CRP immobilised on a CM5 chip and denatured to mCRP by 200 s of 8 M urea and 5 mM EDTA; peptides A08, B78, A08-C injected at 30 μl/min in PBS with 0.05% P-20. The following applies: both partners purified.

For B1, binding in test [1] was put at a Kd of 0.0737 nM.

B2: peptide B78 (peptide)
peptide: PGKVGPKGPMGPK
notes: peptide from the collagen like region (CLR) of the C1q-B chain; Biotinylated and nonbiotinylated peptides were synthesized; source: synthetic peptide (GenScript, >95% purity)
The molecule B2 registered a Kd with monomeric CRP (mCRP) of 3500 µM.

B3: peptide 35-47 of mCRP (peptide)
peptide: VCLHFYTELSSTR
notes: peptide 35-47 derived from mCRP (C-reactive protein); Biotinylated and nonbiotinylated peptides were synthesized; also called a.a.35-47; mCRP a.a.35-47; source: synthetic peptide (GenScript, >95% purity)
B3 had a Kd in test [1] of 2940 nM.

B4: peptide A08 (peptide)
peptide: GRPGRRGRPGLKG
notes: peptide from the collagen like region (CLR) of the C1q-A chain; Biotinylated and nonbiotinylated peptides were synthesized; also called C1qA08; source: synthetic peptide (GenScript, >95% purity)
In turn, B4 had a Kd with monomeric CRP (mCRP) of 4.7 µM.

B5: peptide 199-206 of mCRP (peptide)
peptide: FTKPQLWP
notes: peptide 199-206 derived from mCRP (C-reactive protein); Biotinylated and nonbiotinylated peptides were synthesized; also called a.a.199-206; source: synthetic peptide (GenScript, >95% purity)
In the case of B5, in test [1], binding was characterised by a dissociation constant (Kd) of 890000 nM.
